# Measurements from US9637764B2, “Methods of producing 7-carbon chemicals via carbon chain elongation associated with cyclohexane carboxylate synthesis” (INVISTA North America S.á r.l., priority 2012, dated 2017).
# Assays:
# Type in all cases: biochemical
# [1] = Carboxylate reductase activity assay, pimelate to pimelate semialdehyde (NADPH consumption, absorbance at 340 nm); conditions: purified enzyme enhanced by the gene product of sfp, 2 mM pimelate, 1 mM ATP, 1 mM NADPH, pH=7.5, room temperature, 20 min; against the empty vector control; FIG. 10
# Experimental: A sequence encoding a HIS-tag was added to the genes from Segniliparus rugosus and Segniliparus rotundus that encode the carboxylate reductases of SEQ ID NOs: 4 and 7, respectively (see FIGS. 7C and 7F), such that N-terminal HIS tagged carboxylate reductases could be produced. Each of the modified genes was cloned into a pET Duet expression vector along with a sfp gene encoding a HIS-tagged phosphopantetheine transferase from Bacillus subtilis, both under the T7 promoter. Each expression vector was transformed into a BL21[DE3] E. coli host and the resulting recombinant E. coli strains were cultivated at 37° C. in a 250 mL shake flask culture containing 50 mL LB media and antibiotic selection pressure, with shaking at 230 rpm. Each culture was induced overnight at 37° C. using an auto-induction media.
# The pellet from each induced shake flask culture was harvested via centrifugation. Each pellet was resuspended and lysed via sonication, and the cell debris was separated from the supernatant via centrifugation. […]
# Enzyme activity assays (i.e., from pimelate to pimelate semialdehyde) were performed in triplicate in a buffer composed of a final concentration of 50 mM HEPES buffer (pH=7.5), 2 mM pimelate, 10 mM MgCl2, 1 mM ATP and 1 mM NADPH. […] The consumption of NADPH was monitored by absorbance at 340 nm.
# [2] = Thioesterase enzyme activity assay, pimeloyl-CoA to pimelate (release of Coenzyme A, Ellman's reagent, absorbance at 412 nm); conditions: 667 μM pimeloyl-CoA, 0.8 μM enzyme, pH=7.4, 37° C., 20 min; compared to the empty vector control; FIG. 8
# Experimental: A sequence encoding an N-terminal His tag was added to the tesB gene from Escherichia coli that encodes a thioesterase (SEQ ID NO 1, see FIG. 7A), such that an N-terminal HIS tagged thioesterase could be produced. The modified tesB gene was cloned into a pET15b expression vector under control of the T7 promoter. The expression vector was transformed into a BL21[DE3] E. coli host. The resulting recombinant E. coli strain was cultivated at 37° C. in a 500 mL shake flask culture containing 50 mL Luria Broth (LB) media and antibiotic selection pressure, with shaking at 230 rpm. The culture was induced overnight at 17° C. using 0.5 mM IPTG.
# The pellet from the induced shake flask culture was harvested via centrifugation. The pellet was resuspended and lysed in Y-Per™ solution (ThermoScientific, Rockford, Ill.). The cell debris was separated from the supernatant via centrifugation. […]
# The enzyme activity assay was performed in triplicate in a buffer composed of 50 mM phosphate buffer (pH=7.4), 0.1 mM Ellman's reagent, and 667 μM of pimeloyl-CoA (as substrate). […] The release of Coenzyme A was monitored by absorbance at 412 nm. The absorbance associated with the substrate only control, which contained boiled enzyme, was subtracted from the active enzyme assay absorbance and compared to the empty vector control.
# [3] = Carboxylate reductase activity assay, N7-acetyl-7-aminoheptanoate to N7-acetyl-7-aminoheptanal (NADPH consumption, absorbance at 340 nm); conditions: purified enzyme enhanced by the gene product of sfp, 2 mM N7-acetyl-7-aminoheptanoate, 1 mM ATP, 1 mM NADPH, pH=7.5, room temperature, 20 min; against the empty vector control; FIG. 12
# Experimental: The activity of each of the N-terminal His-tagged carboxylate reductases of SEQ ID NOs: 3, 6, and 7 (see Examples 4, and FIGS. 7B, 7E, and 7F) for converting N7-acetyl-7-aminoheptanoate to N7-acetyl-7-aminoheptanal was assayed in triplicate in a buffer composed of a final concentration of 50 mM HEPES buffer (pH=7.5), 2 mM N7-acetyl-7-aminoheptanoate, 10 mM MgCl2, 1 mM ATP, and 1 mM NADPH. The assays were initiated by adding purified carboxylate reductase and phosphopantetheine transferase or the empty vector control to the assay buffer containing the N7-acetyl-7-aminoheptanoate then incubated at room temperature for 20 min. The consumption of NADPH was monitored by absorbance at 340 nm.
molecule,measurement,setting,value
"SEQ ID NO 4: Segniliparus rugosus carboxylate reductase, Genbank Accession No. EFV11917.1 (protein, listed as Segniliparus rugosus) MGDGEERAKRFFQRIGELSATDPQFAAAAPDPAVVEAVSDPSLSFTRYLDTLMRGYAERPALAHRVGAGYETISYGELWARVGAIAAAWQADGLAPGDFVATVGFTSPDYVAVDLAAARSGLVSVPLQAGASLAQLVGILEETEPKVLAASASSLEGAVACALAAPSVQRLVVFDLRGPDASESAADERRGALADAEEQLARAGRAVVVETLADLAARGEALPEAPLFEPAEGEDPLALLIYTSGSTGAPKGAMYSQRLVSQLWGRTPVVPGMPNISLHYMPLSHSYGRAVLAGALSAGGTAHFTANSDLSTLFEDIALARPTFLALVPRVCEMLFQESQRGQDVAELRERVLGGRLLVAVCGSAPLSPEMRAFMEEVLGFPLLDGYGSTEALGVMRNGIIQRPPVIDYKLVDVPELGYRTTDKPYPRGELCIRSTSLISGYYKRPEITAEVFDAQGYYKTGDVMAEIAPDHLVYVDRSKNVLKLSQGEFVAVAKLEAAYGTSPYVKQIFVYGNSERSFLLAVVVPNAEVLGARDQEEAKPLIAASLQKIAKEAGLQSYEVPRDFLIETEPFTTQNGLLSEVGKLLRPKLKARYGEALEARYDEIAHGQADELRALRDGAGQRPVVETVVRAAVAISGSEGAEVGPEANFADLGGDSLSALSLANLLHDVFEVEVPVRIIIGPTASLAGIAKHIEAERAGASAPTAASVHGAGATRIRASELTLEKFLPEDLLAAAKGLPAADQVRTVLLTGANGWLGRFLALEQLERLARSGQDGGKLICLVRGKDAAAARRRIEETLGTDPALAARFAELAEGRLEVVPGDVGEPKFGLDDAAWDRLAEEVDVIVHPAALVNHVLPYHQLFGPNVVGTAEIIRLAITAKRKPVTYLSTVAVAAGVEPSSFEEDGDIRAVVPERPLGDGYANGYGNSKWAGEVLLREAHELVGLPVAVFRSDMILAHTRYTGQLNVPDQFTRLVLSLLATGIAPKSFYQQGAAGERQRAHYDGIPVDFTAEAITTLGAEPSWFDGGAGFRSFDVFNPHHDGVGLDEFVDWLIEAGHPISRIDDHKEWFARFETAVRGLPEAQRQHSLLPLLRAYSFPHPPVDGSVYPTGKFQGAVKAAQVGSDHDVPHLGKALIVKYADDLKALGLL",carboxylate reductase activity for converting pimelate to pimelate semialdehyde,[1],accepted pimelate as substrate
"tesB: Escherichia coli thioesterase encoded by tesB, GenBank Accession No. AAA24665.1 (protein, listed as Escherichia coli) MSQALKNLLTLLNLEKIEEGLFRGQSEDLGLRQVFGGQVVGQALYAAKETVPEERLVHSFHSYFLRPGDSKKPIIYDVETLRDGNSFSARRVAAIQNGKPIFYMTASFQAPEAGFEHQKTMPSAPAPDGLPSETQIAQSLAHLLPPVLKDKFICDRPLEVRPVEFHNPLKGHVAEPHRQVWIRANGSVPDDLRVHQYLLGYASDLNFLPVALQPHGIGFLEPGIQIATIDHSMWFHRPFNLNEWLLYSVESTSASSARGFVRGEFYTQDGVLVASTVQEGVMRNHN",thioesterase activity for converting pimeloyl-CoA to pimelate,[2],accepted pimeloyl-CoA as substrate
"SEQ ID NO 6: Mycobacterium massiliense carboxylate reductase, Genbank Accession No. EIV11143.1 (protein, Mycobacterium massiliense) MTNETNPQQEQLSRRIESLRESDPQFRAAQPDPAVAEQVLRPGLHLSEAIAALMTGYAERPALGERARELVIDQDGRTTLRLLPRFDTTTYGELWSRTTSVAAAWHHDATHPVKAGDLVATLGFTSIDYTVLDLAIMILGGVAVPLQTSAPASQWTTILAEAEPNTLAVSIELIGAAMESVRATPSIKQVVVFDYTPEVDDQREAFEAASTQLAGTGIALETLDAVIARGAALPAAPLYAPSAGDDPLALLIYTSGSTGAPKGAMHSENIVRRWWIREDVMAGTENLPMIGLNFMPMSHIMGRGTLTSTLSTGGTGYFAASSDMSTLFEDMELIRPTALALVPRVCDMVFQRFQTEVDRRLASGDTASAEAVAAEVKADIRDNLFGGRVSAVMVGSAPLSEELGEFIESCFELNLTDGYGSTEAGMVFRDGIVQRPPVIDYKLVDVPELGYFSTDKPHPRGELLLKTDGMFLGYYKRPEVTASVFDADGFYMTGDIVAELAHDNIEIIDRRNNVLKLSQGEFVAVATLEAEYANSPVVHQIYVYGSSERSYLLAVVVPTPEAVAAAKGDAAALKTTIADSLQDIAKEIQLQSYEVPRDFIIEPQPFTQGNGLLTGIAKLARPNLKAHYGPRLEQMYAEIAEQQAAELRALHGVDPDKPALETVLKAAQALLGVSSAELAADAHFTDLGGDSLSALSFSDLLRDIFAVEVPVGVIVSAANDLGGVAKFVDEQRHSGGTRPTAETVHGAGHTEIRAADLTLDKFIDEATLHAAPSLPKAAGIPHTVLLTGSNGYLGHYLALEWLERLDKTDGKLIVIVRGKNAEAAYGRLEEAFDTGDTELLAHFRSLADKHLEVLAGDIGDPNLGLDADTWQRLADTVDVIVHPAALVNHVLPYNQLFGPNVVGTAEIIKLAITTKIKPVTYLSTVAVAAYVDPTTFDEESDIRLISAVRPIDDGYANGYGNAKWAGEVLLREAHDLCGLPVAVFRSDMILAHSRYTGQLNVPDQFTRLILSLIATGIAPGSFYQAQTTGERPLAHYDGLPGDFTAEAITTLGTQVPEGSEGFVTYDCVNPHADGISLDNFVDWLIEAGYPIARIDNYTEWFTRFDTAIRGLSEKQKQHSLLPLLHAFEQPSAAENHGVVPAKRFQHAVQAAGIGPVGQDGTTDIPHLSRRLIVKYAKDLEQLGLL",carboxylate reductase activity for converting N7-acetyl-7-aminoheptanoate to N7-acetyl-7-aminoheptanal,[3],accepted N7-acetyl-7-aminoheptanoate as substrate
